{"source": "paper PMC13233820", "about": "“Recruitment of Mre11 to recombination sites during meiosis” (Nature Communications, 2026)", "molecules": {"B1": {"name": "Mre11-LLK: Mre11 (or its C49 fragment) with LLK residues mutated to alanine (protein, UniProt P32829 1-692, looked up, variant L683A L686A K690A)", "Double-strand break repair …": "MDYPDPDTIRILITTDNHVGYNENDPITGDDSWKTFHEVMMLAKNNNVDMVVQSGDLFHVNKPSKKSLYQVLKTLRLCCMGDKPCELELLSDPSQVFHYDEFTNVNYEDPNFNISIPVFGISGNHDDASGDSLLCPMDILHATGLINHFGKVIESDKIKVVPLLFQKGSTKLALYGLAAVRDERLFRTFKDGGVTFEVPTMREGEWFNLMCVHQNHTGHTNTAFLPEQFLPDFLDMVIWGHEHECIPNLVHNPIKNFDVLQPGSSVATSLCEAEAQPKYVFILDIKYGEAPKMTPIPLETIRTFKMKSISLQDVPHLRPHDKDATSKYLIEQVEEMIRDANEETKQKLADDGEGDMVAELPKPLIRLRVDYSAPSNTQSPIDYQVENPRRFSNRFVGRVANGNNVVQFYKKRSPVTRSKKSGINGTSISDRDVEKLFSESGGELEVQTLVNDLLNKMQLSLLPEVGLNEAVKKFVDKDEKTALKEFISHEISNEVGILSTNEEFLRTDDAEEMKALIKQVKRANSVRPTPPKENDETNFAFNGNGLDSFRSSNREVRTGSPDITQSHVDNESRITHISQAESSKPTSKPKRVRTATKKKIPAFSDSTVISDAENELGDNNDAQDDVDIDENDIIMVSTDEEDASYGLLNGRKTKTKTRPAASTKTASRRGKGRASRTPKTDIAGSALAKARK"}}, "key": {"Mer2": {"test_system": "Mer2", "assay": "Yeast two-hybrid", "assay_type": "binding, Saccharomyces cerevisiae", "conditions": "SC-Leu-Ura-His + 25 mM 3-AT", "method": "Bait and prey plasmids were co-transformed into yWL365 using the standard ‘LiAc’-based transformation and plated on SC-Leu-Ura selective media. At least four independent transformants were tested for Mer2-Mre11 interaction by spotting a dilution series on SC-Leu- Ura-His + 25 mM 3-AT (3-amino-1,2,4-triazole) and growing for 4-5 days at 30 °C."}, "HisSUMO-Mer2 (wild type)": {"test_system": "HisSUMO-Mer2 (wild type)", "assay": "Co-expression pull-down assay (NiNTA, anti-MBP immunoblot)", "assay_type": "binding, Saccharomyces cerevisiae", "conditions": "co-expressed in E. coli", "method": "Wild-type and mutant MBP-tagged Mre11-C49 and HisSUMO-tagged Mer2 were co-expressed in 50 mL of E. coli BL21 cultures and purified by affinity chromatography on Ni-NTA resin following a procedure similar to that described above. Briefly, cells were lysed by sonication and centrifuged at maximum speed for 30 mins at 4 °C on a table-top centrifuge. A small fraction of the supernatant was collected as ‘Input’ and the remainder was incubated with 120 µL Ni-NTA resin, pre-equilibrated with wash buffer (25 mM HEPES pH 7.5, 20 mM imidazole, 0.1 mM DTT, 0.1 mM PMSF, 10% glycerol), for 1 hour on a rotating wheel at 4 °C. The resin was washed twice with 2 ml in batch and five times with 2 ml on column before eluting with 250 µL of 500 mM imidazole in wash buffer. Input and elution fractions were separated by SDS-PAGE followed by immunoblotting with primary murine anti-MBP monoclonal antibody at 1:10,000 dilution (E8032S, NEB) and secondary goat anti-mouse IgG-HRP conjugated at 1:10,000 dilution (AP308P, Chemicon)."}}, "data": [{"molecule": "B1", "values": [{"measurement": "Yeast two-hybrid interaction with Mer2 (in words)", "setting": "Mer2", "value": "abolished the interaction"}, {"measurement": "Interaction with Mer2 in pulldown (in words)", "setting": "HisSUMO-Mer2 (wild type)", "value": "strongly decreased the interaction"}]}]}
